Test: yeast display, Sf9 membrane polyspecificity reagent, FACS + sequencing; frameworks hold sequencing errors
In short: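 A synthetic nanobody library was expressed on Saccharomyces cerevisiae BJ5465 by galactose induction for 36–48 hours. The library was stained for 1 hour at 4 °C with 10% biotinylated, detergent-solubilized Sf9 membrane reagent and enriched with streptavidin microbeads before FACS. Low and high (top ~1%) gates were set on anti-HA fluorescence for expression and streptavidin fluorescence for reagent binding, and each polyreactivity label reflects the gate of origin.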

| Sequence | polyreactivity (PSR sort gate) |
| --- | --- |
| QVQLVESGGGLVQAGGSLRLSCAASGSIFYHNAMGWYRQAPGKERELVAAITWSGSTTYYADSVKGRFTISRDNAKKTVYLQMNSLKPEDTAVYYCNAGHRHGHYDYWGQGTQVTVSS | low polyreactivity |
| QVQLVESGGGLLQAGGSLRLSCAASGSNFVAYAMGRYRQAPGKERELVAAITYSGGGTYYADSVKGRCTISRDNAKNTVYLLMNSLKPEDTALYYCNAVGGIYDFDYCGQGTQVTVSS | high polyreactivity |
| QVQLVESGGGLVQAGGSLRLSCAASGFNFEAYTMGWYRQAPGKERELVASIDWDGGSTYYADSVKGRFTISRDNAKNTVYLQMNSLKPEDTAVYYCAADSRQYDELGDYDYWGQGTQVTVSS | low polyreactivity |
| QVQLVESGGGLVQAGGSLRLSCAASGITFRYYTMGWYRQAPGKERELVAAITTSGTGTYYADSVKGRFTISRDNAKNTVYLQMNSLNPEYSAVYYCATYPHIAVLSRYDYWGQGTQVTVSS | low polyreactivity |
| QVQLVESAGGLVQAGGSHRLSCAASGNIFYYYRMGWYRQEPGKESEFVAAISTSGGNTYYADSVKGRFTISRDNAKNTVYLQINSLKPEDTAVYYCAADDWPWGDAGVDYWGQGTQVTVSS | low polyreactivity |
| QVQLVESGGGLVQAGGSLRLSGAASGSIFSHYAMGWYRQAPGKAWELVASISTADSTNYADSVKGRFTISRDNAKNTVYFQMYSLKPEDTAVYYCAAEYQSYAQYAWGYDYCGQGTQVTVSS | low polyreactivity |
| QVQLVESGGGLVQAGGSLRLSCAASGRILPYNVMGWFRQARGKEREFVAAITGSGGDTYYADSVKGRFTISRDNAKNTVYLQMNSLKPEDTAVYYCAAAPYIGGSFGQTPGSGYWGQGTQVTVSS | low polyreactivity |
| QVQLVESGGGLVQAGGSLRLSCAASGSIFSPYTMGWYRQAPGKERELVAAMSASGGSTYYADSVKGRFTISRDNAKNTVYLQMNSLKPEDTAVYYCNVYRITRHSYNCGFDYWGQGTQVTVSS | low polyreactivity |
| QVQHVESGGGLVQAGGSLRLSCAASGSTFSANAMGWYRQAPGKERELVAVIRRGGSTTYADSVKGRFTISRDNAKNTVYLQMNSLKPEDTAVYYCNARVTLGRPLFTYLVRYEYWGQGTQVTVSS | high polyreactivity |
| QFQLVESGGGLVQAGGSLRLSCAASGSIFVPYAMGWYRQAPGKERELVAAISSSTASTYYADSVKGRFTISRDNAKNTVYLQMNSLKPEDTAVYYCNAEQWDYGVRVAHYDYWGQGTQVTVSS | low polyreactivity |
| QVQLVESGGCLVQAGGSLRLSCAASGFIFPPNAMGWYRQAPGKERELVASISSSGGSTYYADSVKGRFTISRDNAKNTVYLQMNSLKPEDTAVYYCAADWFYGWGKYDYWGQGTQVTVSS | low polyreactivity |
| QVQLVESGGGLVQAGGSHRLSCAASGSIFYVNAMGWYRQSPGKERELVAAINRGGVSTYYADSVKGRFTISRDNAKNTVYLLMNSLKPEDTAVYYCATDFYLSTYSHYVWLYGYEFYYWGQGTQVTVSS | low polyreactivity |
| QVQLVESGGGLVQAGGSLRLSCAASGFIFYYYAMGWYRQAPGKERELVAGIDKTGGSTYYADSVKGRFTISRDNAKNPVYLQMNSLKPDDTAVYYCNAPYYRGGKDGYWGQGTQVTVSS | high polyreactivity |
| QVQLVESGGGLVQAGGSLRLSCAASGSTIFAYAMGWYRQAPGKERELVAAIRRGGTSTYYADSVKGRFTISRDNAKNTVYLQMNSLKPEDTAVYYCNKAYITKRGVSGSNDYWGQGTQVTVSS | low polyreactivity |
| QVQLVESGGGLVQAGGSLRLSCAASGSIFWVYAMGWSRQAPGKERELVAAISNSGSTNYADSVKGRFTISRDNAKNTVYLQMNSLKPEDTAVYYCAKDSLVDHVGGYDYWGQGTQVTVSS | low polyreactivity |
| QVQLVESGGGLVQAGGSRRLSCAASGRIFTTYAMGWYRQAPGKERELVAAITRNGGRTYYADSVKGRFTLSRDNAKNTVYVPMHSLKPEDTAVYYCAAVYRSFGKVYGMDYWGQGTQVTVSS | high polyreactivity |
| QVQLVESGGGLVQAGGSLRLSCAASGYTIIVNAMGWYRQAPGKERELVAAISWSSVSTYYADSVKGRFTISRDNAKNTVYLQMNSLKPEDTAVYYCAAEGYDYSQWFDYWGQGTQVTASS | high polyreactivity |
